The source of these data is the RNAGym collection of RNA variant scans (doi:10.1073/pnas.2313332121).

Fewer inactive variants are shown than the library holds.

First the molecules themselves.
B1: TPR 5TU (parent)
chain: GGAUCUUCUCGAUCUAACAAAAAAGACAAAUCUGCCACAAAGCUUGAGAGCAUCUUCGGAUGCAGAGGCGGCAGCCUUCGGUGGCGCGAUAGCGCCAACGUUCUCAACUAUGACACGCAAAACGCGUGCUCCGUUGAAUGGAGUUUAUCAUG

In this data set the parent is B1. The data set can be described thus: polymerase ribozyme fitness, log enrichment relative to wild type (log ratio); higher = more active; in vitro selection for triplet polymerase activity. In short, it runs like this: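 Fitness is a logarithmic measure of how a genotype enriched relative to the wild type, with replicate averages weighted by inverse variance. The logarithm uses base 2, and enrichment came from Illumina sequencing of input and output libraries. Those libraries were PCR-built, transcribed mutants of each subunit of a heterodimeric triplet polymerase ribozyme, passed through one triplicate in vitro selection round that included frozen incubation at −7 °C, gel excision of extended constructs and streptavidin-bead capture. Genotypes were kept only if they had ≥10 input reads and ≥1 read per output.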
Turning to A16G U55A G83A G117U, the “polymerase ribozyme fitness (log ratio)” value was -1.7.

For the variant A16G G94A G143C, the “polymerase ribozyme fitness (log ratio)” value was -3.22.

A17G C36G C79A C95U A97U G117U G126U: the “polymerase ribozyme fitness (log ratio)” value is -4.08.

In the case of A16U A30C U44A G88A C105U U109A, the “polymerase ribozyme fitness (log ratio)” value is at most -4.2.

For the variant A16U U33C C38U G140U, the “polymerase ribozyme fitness (log ratio)” value was at most -4.2.

With A17C G62U C93G, the “polymerase ribozyme fitness (log ratio)” value was -3.31.

On to A16G U45A C72U C93G U151A, for which the “polymerase ribozyme fitness (log ratio)” value was at most -4.2.

With A16U C18A A40G G74A G80C G83U G86A A97U, the “polymerase ribozyme fitness (log ratio)” value was at most -4.2.

Consider A17C U44G G88A C95G C103U G141C, for which the “polymerase ribozyme fitness (log ratio)” value was at most -4.2.

In the case of A16U U31A C38G A41C G62C A120U A142G A147U, the “polymerase ribozyme fitness (log ratio)” value was at most -4.2.

On to A17C G59C U102G C123A, for which the “polymerase ribozyme fitness (log ratio)” value is -2.05.

As for A16U G34U G71A G94A U102G U151A, the “polymerase ribozyme fitness (log ratio)” value is at most -4.2.

Consider A16U A39C A49C C96U C125U, for which the “polymerase ribozyme fitness (log ratio)” value is at most -4.2.

On to A16G G83U G92A C96U, for which the “polymerase ribozyme fitness (log ratio)” value was at most -4.2.

As for A17C C57A C114U, the “polymerase ribozyme fitness (log ratio)” value is -1.86.

Consider A16G U31G A49U, for which the “polymerase ribozyme fitness (log ratio)” value was at most -4.2.

For the variant A16U U31C C38U C114U, the “polymerase ribozyme fitness (log ratio)” value is -3.95.

With A16U U56A C96A, the “polymerase ribozyme fitness (log ratio)” value was -3.23.

For A17G A23G G48C A91U U104A, the “polymerase ribozyme fitness (log ratio)” value was at most -4.2.

For A16U A22C, the “polymerase ribozyme fitness (log ratio)” value is -2.41.

Turning to A17G C96A A119U, the “polymerase ribozyme fitness (log ratio)” value was -0.596.

A16U U44G G48A C87U U102G C131U C132G: the “polymerase ribozyme fitness (log ratio)” value is at most -4.2.

Take A16U U61G G81A: the “polymerase ribozyme fitness (log ratio)” value is -1.91.

Consider A16G G42A A52G C95U C96A C99G, for which the “polymerase ribozyme fitness (log ratio)” value is at most -4.2.

Take A17C G84C A142G: the “polymerase ribozyme fitness (log ratio)” value was -3.21.

Take A17G C35U G83A: the “polymerase ribozyme fitness (log ratio)” value is -0.796.

With A16U A17U A26U C27G A49U C54A A66U C85A C116G, the “polymerase ribozyme fitness (log ratio)” value was -3.74.

For A16U A22G C57A U135A, the “polymerase ribozyme fitness (log ratio)” value was -3.06.

In the case of A17C A40U U53A C76G C93U U146G, the “polymerase ribozyme fitness (log ratio)” value was at most -4.2.

On to A17G A49U G83U, for which the “polymerase ribozyme fitness (log ratio)” value was -3.31.

A17C C18G G58A C69G C85U: the “polymerase ribozyme fitness (log ratio)” value is -2.39.

Turning to A16G C57A, the “polymerase ribozyme fitness (log ratio)” value was -0.592.

With A16U C103G, the “polymerase ribozyme fitness (log ratio)” value was -3.31.

Consider A17G C57U A113C, for which the “polymerase ribozyme fitness (log ratio)” value was -3.96.

Turning to A16U C57A, the “polymerase ribozyme fitness (log ratio)” value was -1.96.

With A17G A47C C87A G88C A91U U111A, the “polymerase ribozyme fitness (log ratio)” value is at most -4.2.

Regarding A17C A110U, the “polymerase ribozyme fitness (log ratio)” value is -4.

As for A17G C18A G84C C93U, the “polymerase ribozyme fitness (log ratio)” value is -3.84.

Take A17G A29C C32G G48C: the “polymerase ribozyme fitness (log ratio)” value is at most -4.2.

As to A16U G133C U146A, the “polymerase ribozyme fitness (log ratio)” value was -3.79.

On to A17G C36U C93G, for which the “polymerase ribozyme fitness (log ratio)” value is -3.8.

For A17C C125G G126A, the “polymerase ribozyme fitness (log ratio)” value is -3.65.

As to A16U A19U A40G, the “polymerase ribozyme fitness (log ratio)” value was at most -4.2.

Consider A16U A47C, for which the “polymerase ribozyme fitness (log ratio)” value is -2.04.

As to A17G A21G C57U C96A A137U A138G, the “polymerase ribozyme fitness (log ratio)” value is at most -4.2.

On to A16U A106G, for which the “polymerase ribozyme fitness (log ratio)” value is -1.8.

As to A16G U53A U146G, the “polymerase ribozyme fitness (log ratio)” value is -2.19.

Take A16U A29C C35U A41C G86A A98U C114U G141U U145G: the “polymerase ribozyme fitness (log ratio)” value is at most -4.2.

A17C G81U C85A C95U C105G A115U: the “polymerase ribozyme fitness (log ratio)” value was -3.03.

Consider A16U G50A A60C G83C G141C, for which the “polymerase ribozyme fitness (log ratio)” value was at most -4.2.

As to A17C A19U, the “polymerase ribozyme fitness (log ratio)” value is 0.475.

For A16G G83U U139G, the “polymerase ribozyme fitness (log ratio)” value was -1.17.

For the variant A16U C27U A29C A49G C95U C105G U146A, the “polymerase ribozyme fitness (log ratio)” value is at most -4.2.

Turning to A17G G48C G94A C95U, the “polymerase ribozyme fitness (log ratio)” value is -3.29.

As to A16G G94U C95A U134G, the “polymerase ribozyme fitness (log ratio)” value is -3.52.

Take A16G C57A G62A C96U: the “polymerase ribozyme fitness (log ratio)” value was -1.89.

Turning to A16U A19U A39U U61A A113G G128A G141C, the “polymerase ribozyme fitness (log ratio)” value was at most -4.2.

Turning to A16U U61A C95U, the “polymerase ribozyme fitness (log ratio)” value was -3.06.

Take A16G C43U C79U C132U: the “polymerase ribozyme fitness (log ratio)” value is at most -4.2.

For the variant A16U C54G A97C C116G G124U A137C, the “polymerase ribozyme fitness (log ratio)” value was at most -4.2.

For A16U A40G U44A G71C C85A G141A G143U, the “polymerase ribozyme fitness (log ratio)” value is at most -4.2.

Turning to A16U U33A G42A C93U G140A, the “polymerase ribozyme fitness (log ratio)” value was at most -4.2.

Regarding A16U A22C C27A C125A A150G, the “polymerase ribozyme fitness (log ratio)” value was at most -4.2.

With A16U A17C U44C U56A C76U G88U C114A, the “polymerase ribozyme fitness (log ratio)” value was at most -4.2.

As to A17G C51G U55A C57U G92U C103A C108A, the “polymerase ribozyme fitness (log ratio)” value was at most -4.2.

A16U C85U C87U A115G: the “polymerase ribozyme fitness (log ratio)” value is -3.52.

Consider A16U G74A G84U U90C C118U A121U, for which the “polymerase ribozyme fitness (log ratio)” value is at most -4.2.

A16U C51U C95U: the “polymerase ribozyme fitness (log ratio)” value is -2.98.

For the variant A17C A37C A52U G83U, the “polymerase ribozyme fitness (log ratio)” value is -3.08.

A17G A39C A40C A73G G94C U134G: the “polymerase ribozyme fitness (log ratio)” value was at most -4.2.

For A16U C57A C99G U104C, the “polymerase ribozyme fitness (log ratio)” value is -3.73.

As to A17C A21U G25U G84A, the “polymerase ribozyme fitness (log ratio)” value was -2.95.

In the case of A17C A21U A29U U53G A73G G94A, the “polymerase ribozyme fitness (log ratio)” value was at most -4.2.

Turning to A17G A113C, the “polymerase ribozyme fitness (log ratio)” value is -2.83.

As to A16U A17C G50A U56A C87U G88A G117U, the “polymerase ribozyme fitness (log ratio)” value was at most -4.2.

On to A17C C38A A47G G92C, for which the “polymerase ribozyme fitness (log ratio)” value is -0.622.

In the case of A17C A30G C79G C87G C96G C105A, the “polymerase ribozyme fitness (log ratio)” value was at most -4.2.

As to A16U A39U G84A G92U C103U C149G U151C, the “polymerase ribozyme fitness (log ratio)” value is at most -4.2.

With A16U A64U A66U G94A C108U A150G, the “polymerase ribozyme fitness (log ratio)” value is at most -4.2.

Take A17C A37C C93G: the “polymerase ribozyme fitness (log ratio)” value was -2.89.

For A16U U31A G83A C105U, the “polymerase ribozyme fitness (log ratio)” value was -1.17.

Turning to A16U U56A G83A U109C U111G, the “polymerase ribozyme fitness (log ratio)” value is at most -4.2.

With A17G A23U A26U C116G A138C A142C, the “polymerase ribozyme fitness (log ratio)” value is at most -4.2.

With A17G C18A C69G U101G C105U A120U A142U, the “polymerase ribozyme fitness (log ratio)” value was -1.71.
